Measured values from paper PMC9352680, “A comprehensive thermodynamic model for RNA binding by the Saccharomyces cerevisiae Pumilio protein PUF4”.
Where a chain is given by its changes, count along the chain named. In names and notes the source's numbering stands.

T1: PUF4 RNA-binding domain (Saccharomyces cerevisiae, UniProt P25339 537-888)
T1 sequence: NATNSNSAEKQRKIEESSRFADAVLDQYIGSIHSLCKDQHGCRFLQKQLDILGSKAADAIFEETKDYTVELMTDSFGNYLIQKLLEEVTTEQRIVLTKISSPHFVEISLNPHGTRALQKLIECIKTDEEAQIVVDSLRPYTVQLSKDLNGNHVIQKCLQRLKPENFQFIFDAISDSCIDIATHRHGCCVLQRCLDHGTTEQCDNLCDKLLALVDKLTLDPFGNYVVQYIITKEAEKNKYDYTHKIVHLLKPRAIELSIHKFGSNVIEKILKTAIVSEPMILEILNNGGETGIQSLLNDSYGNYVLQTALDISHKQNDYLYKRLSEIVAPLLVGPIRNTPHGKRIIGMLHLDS

B1: Ic_S4_P5E.1_K5.1_C5.1_H5.1_A5.1_[T5C]_[A7T]_F5.1_[T8C]_[T9G]_[A10T]_T5.1 (ssRNA)
RNA: UUUGACAACUGAUCGUUCUUUCUUGUACUUCGUUUCUUUCUCGAUCAGUUGUCUUU
B2: Ic_S4_P5E.1_K5.1_C5.1_H5.1_A5.1_[T5A]_[T6C]_[A7C]_F5.1_[T9A]_[A10G]_T5.1 (ssRNA)
RNA: B1 RNA with C28A, U29C, U30C, C31U, G32A, U33G
B3: Ic_S4_P5E.1_K5.1_C5.1_H5.1_A5.1_[T5C]_[T6G]_[A7T]_F5.1_[T8G]_[T9G]_[A10T]_T5.1 (ssRNA)
RNA: B1 RNA with U29G, C31G
B4: Ic_S4_P5E.1_K5.1_C5.1_H5.1_A5.1_[T5C]_[T6C]_[A7C]_F5.1_[T9A]_[A10G]_T5.1 (ssRNA)
RNA: B1 RNA with U29C, U30C, C31U, G32A, U33G
B5: Ic_S4_P5E.1_K5.1_C5.1_H5.1_A5.1_[A7T]_F5.1_[T8C]_[T9G]_[A10T]_T5.1 (ssRNA)
RNA: B1 RNA with C28U
B6: Ic_S4_P5E.1_K5.1_C5.1_H5.1_A5.1_[T6A]_[A7T]_F5.1_[T8A]_[T9A]_T5.1 (ssRNA)
RNA: B1 RNA with C28U, U29A, C31A, G32A, U33A
B7: Ic_S4_P5E.1_K5.1_C5.1_H5.1_A5.1_[T5C]_F5.1_[T8A]_[T9A]_[A10T]_T5.1 (ssRNA)
RNA: B1 RNA with U30A, C31A, G32A
B8: Ic_S4_P5E.1_K5.1_C5.1_H5.1_A5.1_[T5A]_[T6A]_[A7C]_F5.1_[T9A]_T5.1 (ssRNA)
RNA: B1 RNA with C28A, U29A, U30C, C31U, G32A, U33A
B9: Ic_S4_P5E.1_K5.1_C5.1_H5.1_A5.1_[T5C]_[T6C]_F5.1_[T8A]_[T9A]_[A10C]_T5.1 (ssRNA)
RNA: B1 RNA with U29C, U30A, C31A, G32A, U33C
B10: Ic_S4_P5E.1_K5.1_C5.1_H5.1_A5.1_[T5C]_[T6G]_[A7T]_F5.1_[T8A]_[T9A]_[A10T]_T5.1 (ssRNA)
RNA: B1 RNA with U29G, C31A, G32A
B11: Ic_S4_P5E.1_K5.1_C5.1_H5.1_A5.1_[T5C]_[T6A]_[A7C]_F5.1_[T8A]_[T9A]_T5.1 (ssRNA)
RNA: B1 RNA with U29A, U30C, C31A, G32A, U33A
B12: Ic_S4_P5E.1_K5.1_C5.1_H5.1_A5.1_[T5A]_[T6C]_[A7C]_F5.1_[T9C]_[A10G]_T5.1 (ssRNA)
RNA: B1 RNA with C28A, U29C, U30C, C31U, G32C, U33G
B13: Ic_S4_P5E.1_K5.1_C5.1_H5.1_A5.1_[T6C]_[A7G]_F5.1_[T8C]_[T9C]_[A10G]_T5.1 (ssRNA)
RNA: B1 RNA with C28U, U29C, U30G, G32C, U33G
B14: Ic_S4_P5E.1_K5.1_C5.1_H5.1_A5.1_[T5C]_[T6C]_F5.1_[T8G]_[A10G]_T5.1 (ssRNA)
RNA: B1 RNA with U29C, U30A, C31G, G32U, U33G
B15: Ic_S4_P5E.1_K5.1_C5.1_H5.1_A5.1_[T5A]_[T6A]_[A7C]_F5.1_[T8G]_[T9C]_[A10C]_T5.1 (ssRNA)
RNA: B1 RNA with C28A, U29A, U30C, C31G, G32C, U33C
B16: Ic_S4_P5E.1_K5.1_C5.1_H5.1_A5.1_[T5C]_[T6G]_[A7T]_F5.1_[T9A]_T5.1 (ssRNA)
RNA: B1 RNA with U29G, C31U, G32A, U33A
B17: Ic_S4_P5E.1_K5.1_C5.1_H5.1_A5.1_[T6C]_[A7T]_F5.1_[T8A]_[A10C]_T5.1 (ssRNA)
RNA: B1 RNA with C28U, U29C, C31A, G32U, U33C
B18: Ic_S4_P5E.1_K5.1_C5.1_H5.1_A5.1_[A7T]_F5.1_[T8A]_[A10G]_T5.1 (ssRNA)
RNA: B1 RNA with C28U, C31A, G32U, U33G
B19: Ic_S4_P5E.1_K5.1_C5.1_H5.1_A5.1_[T6G]_[A7C]_F5.1_[T8G]_[T9C]_[A10T]_T5.1 (ssRNA)
RNA: B1 RNA with C28U, U29G, U30C, C31G, G32C
B20: Ic_S4_P5E.1_K5.1_C5.1_H5.1_A5.1_[T6A]_[A7C]_F5.1_[T8C]_[T9C]_[A10T]_T5.1 (ssRNA)
RNA: B1 RNA with C28U, U29A, U30C, G32C
B21: Ic_S4_P5E.1_K5.1_C5.1_H5.1_A5.1_[T6A]_[A7C]_F5.1_[T8G]_[T9G]_[A10T]_T5.1 (ssRNA)
RNA: B1 RNA with C28U, U29A, U30C, C31G
B22: Ic_S4_P5E.1_K5.1_C5.1_H5.1_A5.1_[T5A]_[T6A]_[A7C]_F5.1_[T9A]_[A10T]_T5.1 (ssRNA)
RNA: B1 RNA with C28A, U29A, U30C, C31U, G32A
B23: Ic_S4_P5E.1_K5.1_C5.1_H5.1_A5.1_[T5G]_[A7C]_F5.1_[T8G]_[A10G]_T5.1 (ssRNA)
RNA: B1 RNA with C28G, U30C, C31G, G32U, U33G
B24: Ic_S4_P5E.1_K5.1_C5.1_H5.1_A5.1_[T5C]_[T6C]_F5.1_[T9A]_[A10C]_T5.1 (ssRNA)
RNA: B1 RNA with U29C, U30A, C31U, G32A, U33C
B25: Ic_S4_P5E.1_K5.1_C5.1_H5.1_A5.1_[T6A]_[A7C]_F5.1_[T8C]_[T9A]_[A10T]_T5.1 (ssRNA)
RNA: B1 RNA with C28U, U29A, U30C, G32A
B26: Ic_S4_P5E.1_K5.1_C5.1_H5.1_A5.1_[T5C]_[T6A]_[A7T]_F5.1_[T8G]_[A10T]_T5.1 (ssRNA)
RNA: B1 RNA with U29A, C31G, G32U
B27: Ic_S4_P5E.1_K5.1_C5.1_H5.1_A5.1_[T5A]_[A7T]_F5.1_[T8G]_[T9C]_[A10C]_T5.1 (ssRNA)
RNA: B1 RNA with C28A, C31G, G32C, U33C
B28: Ic_S4_P5E.1_K5.1_C5.1_H5.1_A5.1_[T6C]_[A7T]_F5.1_[T8A]_[T9G]_[A10C]_T5.1 (ssRNA)
RNA: B1 RNA with C28U, U29C, C31A, U33C
B29: Ic_S4_P5E.1_K5.1_C5.1_H5.1_A5.1_[T5C]_F5.1_[T8C]_[T9G]_[A10C]_T5.1 (ssRNA)
RNA: B1 RNA with U30A, U33C

Target: T1, PUF4 RNA-binding domain
Experiment: Mg; RNA-MaP; 20 mM Na-HEPES pH 7.4, 30 mM KOAc, 0.75 mM MgCl2, 0.1% Tween-20, 5% glycerol, 0.1 mg/mL BSA, 2 mM DTT; 25 C; 0.0125-409.6 nM protein
Conditions: tags: N-His6-TEV cleaved; C-SNAP kept, Cy3B-labelled; label: tethered on chip by stalled RNA polymerase

| Binder | Kd [nM] |
| --- | --- |
| B1 | 199 |
| B2 | 48.7 |
| B3 | 195 |
| B4 | 6.26 |
| B5 | 62.1 |
| B6 | 3.86 |
| B7 | 18.5 |
| B8 | 4.37 |
| B9 | 158 |
| B10 | 67.6 |
| B11 | 15.5 |
| B12 | 610 |
| B13 | 1730 |
| B14 | 124 |
| B15 | 586 |
| B16 | 4.22 |
| B17 | 13.6 |
| B18 | 12.4 |
| B19 | 542 |
| B20 | 36.1 |
| B21 | 510 |
| B22 | 2.41 |
| B23 | 486 |
| B24 | 2.7 |
| B25 | 15.4 |
| B26 | 6.77 |
| B27 | 400 |
| B28 | 47.4 |
| B29 | 499 |
